Results reported in patent US20060263331A1, “Therapeutic use of tumor necrosis factor-alpha mutein” (priority 2002, published 2006).

Tested on: non-Hodgkin's lymphoma
Assay: Clinical monotherapy of rhTNFm1, non-Hodgkin's lymphoma
Type: in vivo, human
Conditions: for Response Rate (%) CR / Response Rate (%) CR + PR / Response Rate (%) PR / Efficacy CR / Efficacy MR / Efficacy PD / Efficacy PR / Efficacy SD: Non-Hodgkin's, monotherapy; for Efficacy CR / Efficacy MR / Efficacy PD / Efficacy PR / Efficacy SD: patient count
From the text: Patients were selected based on the following criteria: i) measurable, objective tumor; ii) Karnofsky performance status (KPS)≧60; iii) age 18-75; iv) major organs in basically normal condition; v) no chemotherapy, radiotherapy and biologic therapy within the last month; vi) predicted ≧3 mon. survival; and vii) with patient's informed consent signed.
Patients were excluded based on the following criteria: i) with history of allergic reactions to TNF or its derivatives; ii) pregnant or lactating women; iii) major organs with obvious damages or malfunction; iv) in ≧38° C. fever; v) with obvious tendency to haemorrhage; vi) with history of hypo- or hypertension; vii) with serious albuminemia; and viii) with strong tendency of disobedience or resistance.
Patients were removed from the evaluation if any of the following conditions apply: i) treatment was not completed according to the protocol; ii) incomplete records; and iii) treatment using cancer therapies not in the protocol. However, patients who withdrew due to adverse reactions to the therapy were still included in the evaluation.
The results of the treatment of tumors were evaluated based the following criteria: i) complete response (CR)—complete disappearance of observable pathological changes for at least 4 weeks; ii) partial response (PR)—reduction by ≧50% in tumor size measured by the product of the maximum circular and vertical dimensions for at least 4 weeks; iii) minimum response (MR)—reduction by >25% but <50% in tumor size measured by the product of the maximum circular and vertical dimensions for at least 4 weeks; iv) stabilized (SD)—reduction by ≦25% but without increase by >25% in tumor size measured by the product of the maximum circular and vertical dimensions for at least 4 weeks; and progression (PD): increase by >25% in tumor size in one or more sites.
Patients rested on day 1 and 2. The treatment cycle was 3-4 weeks.
Table II summaries results of the treatment of patients with malignant lymphoma, classified according to Hodgkin's disease and non-Hodgkin's lymphoma. Within each of category of lymphoma, patients were further classified into two groups: chemo-naïve and chemo-refractory. The chemo-naïve patients were patients who had never been treated with any anti-cancer agent previously whereas chemo-refractory patients were ones who failed treatment with one or more anti-cancer agent.

[1] = Chemo-naïve Grade I & II, 4 patients
[2] = Chemo-naïve Grade III & IV, 5 patients

B1: rhTNFm1: Recombinant human TNF-α mutant 1 expressed in E. coli; SEQ ID NO: 3 with N-terminal methionine (FIG. 1, 2) (protein)
chain: MRKRKPVAHVVANPQAEGQLQWLNRRANALLANGVELRDNQLVVPSEGLYLIYSQVLFKGQGCPSTHVLLTHTISRIAVSYQTKVNLLSAIKSPCQRETPEGAEAKPWYEPIYLGGVFQLEKGDRLSAEINRPDYLDFAESGQVYFGIIAQ
modifications: rhTNFm1 with Met
In the case of B1, the “Response Rate (%) CR” value [1] is reported as 0%, the “Response Rate (%) CR + PR” value [1] is reported as 75% and the “Response Rate (%) PR” value [1] is reported as 75%. The “Response Rate (%) CR” value [2] was 0%, the “Response Rate (%) CR + PR” value [2] was 60% and the “Response Rate (%) PR” value [2] was 60%. For the same molecule, the “Response Rate (%) CR” value (Chemo-naïve Total, 9 patients) was 0%, the “Response Rate (%) CR + PR” value (Chemo-naïve Total, 9 patients) was 66.67% and the “Response Rate (%) PR” value (Chemo-naïve Total, 9 patients) was 66.67%. For the same molecule, the “Response Rate (%) CR” value (Chemo-refractory, 56 patients) was 3.57%, the “Response Rate (%) CR + PR” value (Chemo-refractory, 56 patients) was 25% and the “Response Rate (%) PR” value (Chemo-refractory, 56 patients) was 21.43%. The “quality of life score after the treatment” value (one NHL patient, before 50) was 60, the “KPS after the treatment” value (one NHL patient, before 90) was 90 and the “Efficacy CR” value [1] was 0. For the same molecule, the “Efficacy MR” value [1] was 1, the “Efficacy PD” value [1] was 0 and the “Efficacy PR” value [1] was 3. The “Efficacy SD” value [1] was 0, the “Efficacy CR” value [2] was 0 and the “Efficacy MR” value [2] was 0. The “Efficacy PD” value [2] was 0, the “Efficacy PR” value [2] was 3 and the “Efficacy SD” value [2] was 2. For the same molecule, the “Efficacy CR” value (Chemo-naïve Total, 9 patients) was 0, the “Efficacy MR” value (Chemo-naïve Total, 9 patients) was 1 and the “Efficacy PD” value (Chemo-naïve Total, 9 patients) was 0. The “Efficacy PR” value (Chemo-naïve Total, 9 patients) was 6, the “Efficacy SD” value (Chemo-naïve Total, 9 patients) was 2 and the “Efficacy MR” value (Chemo-refractory, 56 patients) was 7. The “Efficacy PD” value (Chemo-refractory, 56 patients) was 10, the “Efficacy PR” value (Chemo-refractory, 56 patients) was 12 and the “Efficacy SD” value (Chemo-refractory, 56 patients) was 25.
